Experimental data as given in US20150344570A1 (published 2015).

T1: FcγRIIa H (FcγRIIa, allotype with His at position 131), extracellular domain with C-terminal His tag (human, UniProt P12318 34-217)
T1 construct: extracellular domain; also called FcgRIIa H; 2aH; not shown: His tag at the C terminus
T1 sequence (looked up): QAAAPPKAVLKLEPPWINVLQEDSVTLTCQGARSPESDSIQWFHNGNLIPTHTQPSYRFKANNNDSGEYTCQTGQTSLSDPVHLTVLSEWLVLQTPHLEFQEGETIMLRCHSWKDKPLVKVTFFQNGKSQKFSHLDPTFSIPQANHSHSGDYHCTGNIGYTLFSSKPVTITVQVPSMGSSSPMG

T2: FcγRIIb, extracellular domain with C-terminal His tag (human, UniProt P31994 43-217)
T2 construct: extracellular domain; also called FcgRIIb; 2b; not shown: His tag at the C terminus
T2 sequence (looked up): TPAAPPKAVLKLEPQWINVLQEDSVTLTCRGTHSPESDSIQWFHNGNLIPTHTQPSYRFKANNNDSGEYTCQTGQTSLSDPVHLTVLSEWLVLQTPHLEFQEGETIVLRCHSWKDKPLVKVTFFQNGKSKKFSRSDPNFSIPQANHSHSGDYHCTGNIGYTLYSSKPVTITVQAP

B1: GpH7-A5/GpH7-B3 variant L328_06M/GpL16-k0 (antibody, human IgG1, kappa)
heavy 1: not shown
heavy 2: not shown
light: DIVMTQSPLSLPVTPGEPASISCQASESLVHSNRNTYLHWYLQKPGQSPQLLIYKVSNRFSGVPDRFSGSGSGTDFTLKISRVEAEDVGVYYCSQNTHVPPTFGQGTKVEIERTVAAPSVFIFPPSDEQLKSGTASVVCLLNNFYPREAKVQWKVDNALQSGNSQESVTEQDSKDSTYSLSSTLTLSKADYEKHKVYACEVTHQGLSSPVTKSFNRGEC
notes: Heterodimerized anti-glypican-3 IgG1; mutation in one H chain only; also called He Ab
B2: GpH7-A5/GpH7-B3 variant L328_07I/GpL16-k0 (antibody, human IgG1, kappa)
heavy 1: not shown
heavy 2: not shown
light: B1 light
notes: as for B1
B3: GpH7-A5/GpH7-B3 variant L328_09D/GpL16-k0 (antibody, human IgG1, kappa)
heavy 1: not shown
heavy 2: not shown
light: B1 light
notes: as for B1
B4: GpH7-A5/GpH7-B3 variant L328_10E/GpL16-k0 (antibody, human IgG1, kappa)
heavy 1: not shown
heavy 2: not shown
light: B1 light
notes: as for B1
B5: GpH7-A5/GpH7-B3 variant L328_15Y/GpL16-k0 (antibody, human IgG1, kappa)
heavy 1: not shown
heavy 2: not shown
light: B1 light
notes: as for B1
B6: GpH7-A5/GpH7-B3 variant L328_20W/GpL16-k0 (antibody, human IgG1, kappa)
heavy 1: not shown
heavy 2: not shown
light: B1 light
notes: as for B1
B7: GpH7-A5/GpH7-B3 variant N325_13S/GpL16-k0 (antibody, human IgG1, kappa)
heavy 1: not shown
heavy 2: not shown
light: B1 light
notes: as for B1
B8: GpH7-A5/GpH7-B3 variant N325_14T/GpL16-k0 (antibody, human IgG1, kappa)
heavy 1: not shown
heavy 2: not shown
light: B1 light
notes: as for B1
B9: GpH7-A5/GpH7-B3 variant N325_15Y/GpL16-k0 (antibody, human IgG1, kappa)
heavy 1: not shown
heavy 2: not shown
light: B1 light
notes: as for B1
B10: GpH7-A5/GpH7-B3 variant N325_16H/GpL16-k0 (antibody, human IgG1, kappa)
heavy 1: not shown
heavy 2: not shown
light: B1 light
notes: as for B1
B11: GpH7-A5/GpH7-B3 variant N325_20W/GpL16-k0 (antibody, human IgG1, kappa)
heavy 1: not shown
heavy 2: not shown
light: B1 light
notes: as for B1
B12: GpH7-A5/GpH7-B3 variant P331_03V/GpL16-k0 (antibody, human IgG1, kappa)
heavy 1: not shown
heavy 2: not shown
light: B1 light
notes: as for B1
B13: GpH7-A5/GpH7-B3 variant P331_04F/GpL16-k0 (antibody, human IgG1, kappa)
heavy 1: not shown
heavy 2: not shown
light: B1 light
notes: as for B1
B14: GpH7-A5/GpH7-B3 variant P331_07I/GpL16-k0 (antibody, human IgG1, kappa)
heavy 1: not shown
heavy 2: not shown
light: B1 light
notes: as for B1
B15: GpH7-A5/GpH7-B3 variant P331_10E/GpL16-k0 (antibody, human IgG1, kappa)
heavy 1: not shown
heavy 2: not shown
light: B1 light
notes: as for B1
B16: GpH7-A5/GpH7-B3 variant P331_15Y/GpL16-k0 (antibody, human IgG1, kappa)
heavy 1: not shown
heavy 2: not shown
light: B1 light
notes: as for B1
B17: GpH7-A5/GpH7-B3 variant P331_16H/GpL16-k0 (antibody, human IgG1, kappa)
heavy 1: not shown
heavy 2: not shown
light: B1 light
notes: as for B1
B18: GpH7-A5/GpH7-B3 variant P331_20W/GpL16-k0 (antibody, human IgG1, kappa)
heavy 1: not shown
heavy 2: not shown
light: B1 light
notes: as for B1
B19: GpH7-A5/GpH7-B3 variant S324_05P/GpL16-k0 (antibody, human IgG1, kappa)
heavy 1: not shown
heavy 2: not shown
light: B1 light
notes: as for B1

What follows are binders tested against T1, FcγRIIa H (FcγRIIa, allotype with His …) (assay: SPR (Biacore); He/Con_2aH divided by He/Con_2b (FcγRIIb)).

He_2aH/2b (IIaH/IIb) [ratio]	Binder
0.73	B1
0.59	B2
0.29	B3
0.32	B4
0.47	B5
0.48	B6
0.45	B7
0.68	B8
0.41	B9
0.68	B10
0.28	B11
0.7	B12
0.77	B13
0.68	B14
0.75	B15
0.75	B16
0.73	B17
0.75	B18
0.59	B19

These binders were tested against T2, FcγRIIb, extracellular domain with … (assay: SPR (Biacore), relative binding vs GpH7-A5/GpH7-B3/GpL16-k0).

He/Con_2b	Binder
142 % of HeCon Ab (=100)	B1
160 % of HeCon Ab (=100)	B2
199 % of HeCon Ab (=100)	B3
172 % of HeCon Ab (=100)	B4
193 % of HeCon Ab (=100)	B5
235 % of HeCon Ab (=100)	B6
177 % of HeCon Ab (=100)	B7
91.6 % of HeCon Ab (=100)	B8
99.5 % of HeCon Ab (=100)	B9
70.1 % of HeCon Ab (=100)	B10
169 % of HeCon Ab (=100)	B11
119 % of HeCon Ab (=100)	B12
110 % of HeCon Ab (=100)	B13
114 % of HeCon Ab (=100)	B14
116 % of HeCon Ab (=100)	B15
114 % of HeCon Ab (=100)	B16
116 % of HeCon Ab (=100)	B17
111 % of HeCon Ab (=100)	B18
94.7 % of HeCon Ab (=100)	B19

What follows are binders tested against T1, FcγRIIa H (FcγRIIa, allotype with His …) in the same assay as above.

He/Con_2aH	Binder
104 % of HeCon Ab (=100)	B1
93.9 % of HeCon Ab (=100)	B2
58.5 % of HeCon Ab (=100)	B3
55.5 % of HeCon Ab (=100)	B4
90 % of HeCon Ab (=100)	B5
113 % of HeCon Ab (=100)	B6
79.7 % of HeCon Ab (=100)	B7
62.7 % of HeCon Ab (=100)	B8
41.2 % of HeCon Ab (=100)	B9
48 % of HeCon Ab (=100)	B10
47.2 % of HeCon Ab (=100)	B11
82.5 % of HeCon Ab (=100)	B12
84.7 % of HeCon Ab (=100)	B13
77.4 % of HeCon Ab (=100)	B14
87.1 % of HeCon Ab (=100)	B15
86 % of HeCon Ab (=100)	B16
84.5 % of HeCon Ab (=100)	B17
82.8 % of HeCon Ab (=100)	B18
55.5 % of HeCon Ab (=100)	B19
